Results from article PMC6693562 (Cell Reports, 2019).
Positions count from the first letter of the chain named. Names may count otherwise.

B1: MBP-OD^WT (human 53BP1 oligomerization domain, residues 1233-1288, fused to N-terminal maltose-binding protein) (domain or fragment, UniProt Q12888 1233-1288, looked up)
chain: GHVLHRHMRTIREVRTLVTRVITDVYYVDGTEVERKVTEETEEPIVECQECETEVS
B2: MBP-OD with mutation of D1256 (D1256A) (domain or fragment, human, UniProt Q12888 1233-1288, looked up)
chain: B1 chain with D24A

Molecular target: the molecule itself
Test: SEC-RALS

Protein	stoichiometry N
B1	4
B2	2
